Test results from EP4538286A1 (Adlai Nortye Biopharma Co., Ltd., dated 2025).

T1: human CTLA4 protein (human, UniProt P16410 37-162, limits assumed)
T1 construct: bought protein coated on the ELISA plate; also called human CTLA4 antigen
T1 sequence (looked up): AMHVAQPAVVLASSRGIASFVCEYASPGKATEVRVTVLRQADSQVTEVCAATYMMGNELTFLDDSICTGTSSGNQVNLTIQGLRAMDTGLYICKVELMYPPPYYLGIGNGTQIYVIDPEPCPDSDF

B1: Abs-353 (other)
heavy: VIHVTKEVKEVATLSCGHNVSVEELAQTRIYWQKNKKMVLTMMSGDMNIWPEYKNRTIFDITNNLSIVILELRPSDEGTYECVVLKYEKDAFKREHLAEVTLSVKADGGGGSGGGGSGGGGSGGGGSGEVQLLESGGGLVQPGGSLRLSCAASGFTFSSYAMSWVRQAPGKGLEWVSGISGSGGFTYYADSVKGRFTISRDNSKNTLYLQMNSLRAEDTAVYYCAKPPRGYNYGPFDYWGQGTLVTVSSASTKGPSVFPLAPCSRSTSESTAALGCLVKDYFPEPVTVSWNSGALTSGVHTFPAVLQSSGLYSLSSVVTVPSSSLGTKTYTCNVDHKPSNTKVDKRVESKYGPPCPPCPAPEFLGGPSVFLFPPKPKDTLMISRTPEVTCVVVDVSQEDPEVQFNWYVDGVEVHNAKTKPREEQFNSTYRVVSVLAVLHQDWLNGKEYKCKVSNKGLPSSIEKTISKAKGQPREPQVYTLPPSQEEMTKNQVSLTCLVKGFYPSDIAVAWESNGQPENNYKTTPPVLDSDGSFFLYSRLTVDKSRWQEGNVFSCSVMHEALHAHYTQKSLSLSLGK
light: SYVLTQPPSVSVAPGQTARITCGGNNIGSKSVHWYQQKPGQAPVLVVYDDSDRPSGIPERFSGSNSGNTATLTISRVEAGDEADYYCQVWDSSSDHVVFGGGTKLTVLGQPKAAPSVTLFPPSSEELQANKATLVCLISDFYPGAVTVAWKADSSPVKAGVETTTPSKQSNNKYAASSYLSLTPEQWKSHRSYSCQVTHEGSTVEKTVAPTECS
notes: CD80 IgV mutant fused to the N-terminus of the sugemalimab heavy chain; also called CD80 IgV mutant E35N/A71E-sugemalimab fusion
B2: Abs-257 (other)
heavy: VIHVTKEVKEVATLSCGWNVSVEELCQTRIYWQKEKKMVLTMMSGDMNIWPEYKNRTIFDITNNLSIVILELRPSDEGTYECVVNKYEKDAFKREHLAEVTLSVKADGGGGSGGGGSGGGGSGGGGSGEVQLLESGGGLVQPGGSLRLSCAASGFTFSSYAMSWVRQAPGKGLEWVSGISGSGGFTYYADSVKGRFTISRDNSKNTLYLQMNSLRAEDTAVYYCAKPPRGYNYGPFDYWGQGTLVTVSSASTKGPSVFPLAPCSRSTSESTAALGCLVKDYFPEPVTVSWNSGALTSGVHTFPAVLQSSGLYSLSSVVTVPSSSLGTKTYTCNVDHKPSNTKVDKRVESKYGPPCPPCPAPEFLGGPSVFLFPPKPKDTLMISRTPEVTCVVVDVSQEDPEVQFNWYVDGVEVHNAKTKPREEQFNSTYRVVSVLAVLHQDWLNGKEYKCKVSNKGLPSSIEKTISKAKGQPREPQVYTLPPSQEEMTKNQVSLTCLVKGFYPSDIAVAWESNGQPENNYKTTPPVLDSDGSFFLYSRLTVDKSRWQEGNVFSCSVMHEALHAHYTQKSLSLSLGK
light: SYVLTQPPSVSVAPGQTARITCGGNNIGSKSVHWYQQKPGQAPVLVVYDDSDRPSGIPERFSGSNSGNTATLTISRVEAGDEADYYCQVWDSSSDHVVFGGGTKLTVLGQPKAAPSVTLFPPSSEELQANKATLVCLISDFYPGAVTVAWKADSSPVKAGVETTTPSKQSNNKYAASSYLSLTPEQWKSHRSYSCQVTHEGSTVEKTVAPTECS
notes: the paragraph that names the antibody is followed; also called CD80 IgV mutant H18W/A26C/A71E/L85N-sugemalimab fusion
B3: Abs-256 (other)
heavy: VIHVTKEVKEVATLSCGWNVSVEELMQTRIYWQKEKKMVLTMMSGDMNIWPEYKNRTIFDITNNLSIVILELRPSDEGTYECVVDKYEKDAFKREHLAEVTLSVKADGGGGSGGGGSGGGGSGGGGSGEVQLLESGGGLVQPGGSLRLSCAASGFTFSSYAMSWVRQAPGKGLEWVSGISGSGGFTYYADSVKGRFTISRDNSKNTLYLQMNSLRAEDTAVYYCAKPPRGYNYGPFDYWGQGTLVTVSSASTKGPSVFPLAPCSRSTSESTAALGCLVKDYFPEPVTVSWNSGALTSGVHTFPAVLQSSGLYSLSSVVTVPSSSLGTKTYTCNVDHKPSNTKVDKRVESKYGPPCPPCPAPEFLGGPSVFLFPPKPKDTLMISRTPEVTCVVVDVSQEDPEVQFNWYVDGVEVHNAKTKPREEQFNSTYRVVSVLAVLHQDWLNGKEYKCKVSNKGLPSSIEKTISKAKGQPREPQVYTLPPSQEEMTKNQVSLTCLVKGFYPSDIAVAWESNGQPENNYKTTPPVLDSDGSFFLYSRLTVDKSRWQEGNVFSCSVMHEALHAHYTQKSLSLSLGK
light: SYVLTQPPSVSVAPGQTARITCGGNNIGSKSVHWYQQKPGQAPVLVVYDDSDRPSGIPERFSGSNSGNTATLTISRVEAGDEADYYCQVWDSSSDHVVFGGGTKLTVLGQPKAAPSVTLFPPSSEELQANKATLVCLISDFYPGAVTVAWKADSSPVKAGVETTTPSKQSNNKYAASSYLSLTPEQWKSHRSYSCQVTHEGSTVEKTVAPTECS
notes: the paragraph that names the antibody is followed; also called CD80 IgV mutant H18W/A26M/A71E/L85D-sugemalimab fusion
B4: Abs-366 (other)
heavy: VIHVTKEVKEVATLSCGHNVSVEELAQTRIYWQKTKKMVLTMMSGDMNIWPEYKNRTIFDITNNLSIVILNLRPSDEGTYECVVLKYEKDAFKREHLAEVTLSVKADGGGGSGGGGSGGGGSGGGGSGEVQLLESGGGLVQPGGSLRLSCAASGFTFSSYAMSWVRQAPGKGLEWVSGISGSGGFTYYADSVKGRFTISRDNSKNTLYLQMNSLRAEDTAVYYCAKPPRGYNYGPFDYWGQGTLVTVSSASTKGPSVFPLAPCSRSTSESTAALGCLVKDYFPEPVTVSWNSGALTSGVHTFPAVLQSSGLYSLSSVVTVPSSSLGTKTYTCNVDHKPSNTKVDKRVESKYGPPCPPCPAPEFLGGPSVFLFPPKPKDTLMISRTPEVTCVVVDVSQEDPEVQFNWYVDGVEVHNAKTKPREEQFNSTYRVVSVLAVLHQDWLNGKEYKCKVSNKGLPSSIEKTISKAKGQPREPQVYTLPPSQEEMTKNQVSLTCLVKGFYPSDIAVAWESNGQPENNYKTTPPVLDSDGSFFLYSRLTVDKSRWQEGNVFSCSVMHEALHAHYTQKSLSLSLGK
light: SYVLTQPPSVSVAPGQTARITCGGNNIGSKSVHWYQQKPGQAPVLVVYDDSDRPSGIPERFSGSNSGNTATLTISRVEAGDEADYYCQVWDSSSDHVVFGGGTKLTVLGQPKAAPSVTLFPPSSEELQANKATLVCLISDFYPGAVTVAWKADSSPVKAGVETTTPSKQSNNKYAASSYLSLTPEQWKSHRSYSCQVTHEGSTVEKTVAPTECS
notes: CD80 IgV mutant fused to the N-terminus of the sugemalimab heavy chain; also called CD80 IgV mutant E35T/A71N-sugemalimab fusion
B5: Abs-260 (other)
heavy: VIHVTKEVKEVATLSCGHNVSVEELMQTRIYWQKEKKMVLTMMSGDMNIWPEYKNRTIFDITNNLSIVILELRPSDEGTYECVVDKYEKDAFKREHLAEVTLSVKADGGGGSGGGGSGGGGSGGGGSGEVQLLESGGGLVQPGGSLRLSCAASGFTFSSYAMSWVRQAPGKGLEWVSGISGSGGFTYYADSVKGRFTISRDNSKNTLYLQMNSLRAEDTAVYYCAKPPRGYNYGPFDYWGQGTLVTVSSASTKGPSVFPLAPCSRSTSESTAALGCLVKDYFPEPVTVSWNSGALTSGVHTFPAVLQSSGLYSLSSVVTVPSSSLGTKTYTCNVDHKPSNTKVDKRVESKYGPPCPPCPAPEFLGGPSVFLFPPKPKDTLMISRTPEVTCVVVDVSQEDPEVQFNWYVDGVEVHNAKTKPREEQFNSTYRVVSVLAVLHQDWLNGKEYKCKVSNKGLPSSIEKTISKAKGQPREPQVYTLPPSQEEMTKNQVSLTCLVKGFYPSDIAVAWESNGQPENNYKTTPPVLDSDGSFFLYSRLTVDKSRWQEGNVFSCSVMHEALHAHYTQKSLSLSLGK
light: SYVLTQPPSVSVAPGQTARITCGGNNIGSKSVHWYQQKPGQAPVLVVYDDSDRPSGIPERFSGSNSGNTATLTISRVEAGDEADYYCQVWDSSSDHVVFGGGTKLTVLGQPKAAPSVTLFPPSSEELQANKATLVCLISDFYPGAVTVAWKADSSPVKAGVETTTPSKQSNNKYAASSYLSLTPEQWKSHRSYSCQVTHEGSTVEKTVAPTECS
notes: the paragraph that names the antibody is followed; also called CD80 IgV mutant A26M/A71E/L85D-sugemalimab fusion
B6: Abs-99 (other)
heavy: VIHVTKEVKEVATLSCGHNVSVEELAQTRIYWQKEKKMVLTMMSGDMNIWPEYKNRTIFDITNNLSIVILALRPSDEGTYECVVLKYEKDAFKREHLAEVTLSVKADGGGGSGGGGSGGGGSGGGGSGEVQLLESGGGLVQPGGSLRLSCAASGFTFSSYAMSWVRQAPGKGLEWVSGISGSGGFTYYADSVKGRFTISRDNSKNTLYLQMNSLRAEDTAVYYCAKPPRGYNYGPFDYWGQGTLVTVSSASTKGPSVFPLAPCSRSTSESTAALGCLVKDYFPEPVTVSWNSGALTSGVHTFPAVLQSSGLYSLSSVVTVPSSSLGTKTYTCNVDHKPSNTKVDKRVESKYGPPCPPCPAPEFLGGPSVFLFPPKPKDTLMISRTPEVTCVVVDVSQEDPEVQFNWYVDGVEVHNAKTKPREEQFNSTYRVVSVLAVLHQDWLNGKEYKCKVSNKGLPSSIEKTISKAKGQPREPQVYTLPPSQEEMTKNQVSLTCLVKGFYPSDIAVAWESNGQPENNYKTTPPVLDSDGSFFLYSRLTVDKSRWQEGNVFSCSVMHEALHAHYTQKSLSLSLGK
light: SYVLTQPPSVSVAPGQTARITCGGNNIGSKSVHWYQQKPGQAPVLVVYDDSDRPSGIPERFSGSNSGNTATLTISRVEAGDEADYYCQVWDSSSDHVVFGGGTKLTVLGQPKAAPSVTLFPPSSEELQANKATLVCLISDFYPGAVTVAWKADSSPVKAGVETTTPSKQSNNKYAASSYLSLTPEQWKSHRSYSCQVTHEGSTVEKTVAPTECS
notes: CD80 IgV fused to the N-terminus of the heavy chain of the anti-PD-L1 antibody sugemalimab; also called wild type Abs-99; wild-type CD80 IgV-sugemalimab fusion polypeptide complex

Columns and labels:
human CD28 protein = biological target: T2, human CD28 protein (human, UniProt P10747 19-152); assay: ELISA, plate-coated human CD28; parameters: binding strength @ 100nM: reference not given here
T2 construct: bought protein coated on the ELISA plate; also called human CD28 antigen
T2 sequence (P10747 19-152 limits assumed): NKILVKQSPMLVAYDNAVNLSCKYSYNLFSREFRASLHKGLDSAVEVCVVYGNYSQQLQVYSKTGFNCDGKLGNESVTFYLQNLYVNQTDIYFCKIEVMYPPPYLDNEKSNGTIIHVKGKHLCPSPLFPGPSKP

human CTLA4 protein = biological target: T1, human CTLA4 protein; assay: ELISA, plate-coated human CTLA4
[1] = biological target: PD-L1 on TCR activator PD-L1-CHO cells (UniProt Q9NZQ7 19-290, limits assumed); assay: cell-based or functional assay
PD-L1 on TCR activator PD-L1-CHO cells, sequence (Q9NZQ7 19-290 limits assumed): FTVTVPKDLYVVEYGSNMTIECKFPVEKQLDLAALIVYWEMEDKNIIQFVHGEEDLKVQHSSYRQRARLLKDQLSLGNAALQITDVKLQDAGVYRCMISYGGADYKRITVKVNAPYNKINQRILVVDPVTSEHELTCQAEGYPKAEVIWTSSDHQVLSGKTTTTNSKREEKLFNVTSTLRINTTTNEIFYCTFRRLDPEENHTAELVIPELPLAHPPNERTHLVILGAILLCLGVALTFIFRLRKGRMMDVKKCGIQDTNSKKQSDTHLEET

| Binder | EC50 (human CD28 protein) | binding strength @ 100nM (human CD28 protein) | EC50 (human CTLA4 protein) | binding strength @ 20nM (human CTLA4 protein) | EC50(nM), Jurkat-NFAT-Luc/CHO-PDL1 [1] | The highest induction relative to 10 nM sugemalimab [1] | binding result (human CD28 protein) | binding result (human CTLA4 protein) |
| --- | --- | --- | --- | --- | --- | --- | --- | --- |
| B1 | 25 nM | 1450% | 0.128 nM | 2490% | 0.48 nM | 1130% |  |  |
| B2 |  |  |  |  | 0.82 nM | 122% | no binding | no binding |
| B3 |  |  |  |  | 0.87 nM | 133% | no binding | no binding |
| B4 |  |  |  |  |  |  | no binding | no binding |
| B5 |  |  |  |  | 0.65 nM | 128% | no binding | no binding |
| B6 | 27.9 nM | 283% | 24.4 nM | 1200% | 0.28 nM | 215% |  |  |
